Data on six proteins can be found in patent publication US6566088.

The target in data set [1] is T1, Biotin-Acp-DLDLEALAPYIPADDDFQL, human HIF-1a ODD peptide, wild type, not hydroxylated.
T1 chain: DLDLEALAPYIPADDDFQL

Data set [2] addresses T2, Biotinylated human HIF-1a ODD peptide with A563G, not hydroxylated.
T2 chain: DLDLEALGPYIPADDDFQL

Data set [3] addresses T3, Biotinylated human HIF-1a ODD peptide with L562A, not hydroxylated.
T3 chain: DLDLEAAAPYIPADDDFQL

Data set [4] addresses T4, Biotinylated human HIF-1a ODD peptide with Pro567 to Gly, not hydroxylated.
T4 chain: DLDLEALAPYIGADDDFQL

The target in data set [5] is T5, Biotinylated human HIF-1a ODD peptide with Y565A, not hydroxylated.
T5 chain: DLDLEALAPAIPADDDFQL

B1: recombinant human HPH 2 with amino-terminal MBP, purified from E. coli (protein)
chain: ANDSGGPGGPSPSERDRQYCELCGKMENLLRCSRCRSSFYCCKEHQRQDWKKHKLVCQGSEGALGHGVGPHQHSGPAPPAAVPPPRAGAREPRKAAARRDNASGDAAKGKVKAKPPADPAAAASPCRAAAGGQGSAVAAEAEPGKEEPPARSSLFQEKANLYPPSNTPGDALSPGGGLRPNGQTKPLPALKLALEYIVPCMNKHGICVVDDFLGKETGQQIGDEVRALHDTGKFTDGQLVSQKSDSSKDIRGDKITWIEGKEPGCETIGLLMSSMDDLIRHCNGKLGSYKINGRTKAMVACYPGNGTGYVRHVDNPNGDGRCVTCIYYLNKDWDAKVSGGILRIFPEGKAQFADIEPKFDRLLFFWSDRRNPHEVQPAYATRYAITVWYFDADERARAKVKYLTGEKGVRVELNKPSDSVGKDVF
For the protein B1, in data set [1], the prolyl hydroxylase activity entry was “Purified HPH 2 was able to hydroxylate the HIF-1a peptide substrate”. Moreover, the “prolyl hydroxylation of variant peptide substrates” value in data set [2] is “unable to modify peptides containing the L562A, A563G or Y565A mutations”; in data set [3] it was “unable to modify peptides containing the L562A, A563G or Y565A mutations”; in data set [4], “a peptide containing a mutation of Pro^567 to glycine served as an equal, if not better, substrate for the human HPH enzymes”; in data set [5] it was “unable to modify peptides containing the L562A, A563G or Y565A mutations”.

B2: human HPH 2 (splice variant) with carboxy-terminal V5-HIS tag, in vitro translated (protein)
chain: ANDSGGPGGPSPSERDRQYCELCGKMENLLRCSRCRSSFYCCKEHQRQDWKKHKLVCQGSEGALGHGVGPHQHSGPAPPAAVPPPRAGAREPRKAAARRDNASGDAAKGKVKAKPPADPAAAASPCRAAAGGQGSAVAAEAEPGKEEPPARSSLFQEKANLYPPSNTPGDALSPGGGLRPNGQTKPLPALKLALEYIVPCMNKHGICVVDDFLGKETGQQIGDEVRALHDTGKFTDGQLVSQKSDSSKDIRGDKITWIEGKEPGCETIGLLMSSMDDLIRHCNGKLGSYKINGRTKAMVACYPGNGTGYVRHVDNPNGDGRCVTCIYYLNKDWDAKVSGGILRIFPEGKAQFADIEPKFDRLLFFWSDRRNPHEVQPAYATRYAITVWYFDADERARAKVKYLTGEKGVRVELNKPSDSVGKDVF
Turning to B2, the “prolyl hydroxylase activity, [^35S]-pVHL pull-down assay” value in data set [1] was “both of these enzymes were observed to catalyze the hydroxylation of the key proline residue in the HIF-1a peptide substrate”.

B3: human HPH 1 H196A with carboxy-terminal V5-HIS tag (protein)
chain: MPLGHIMRLDLEKIALEYIVPCLHEVGFCYLDNFLGEVVGDCVLERVKQLHCTGALRDGQLAGPRAGVSKRHLRGDQITWIGGNEEGCEAISFLLSLIDRLVLYCGSRLGKYYVKERSKAMVACYPGNGTGYVRHVDNPNGDGRCITCIYYLNKNWDAKLHGGILRIFPEGKSFIADVEPIFDRLLFFWSDRRNPAEVQPSYATRYAMTVWYFDAEERAEAKKKFRNLTRKTESALTED
As for B3, in data set [1], the prolyl hydroxylase activity entry is given as “Each of these mutations eliminated the prolyl hydroxylase activity of the native HPH 1 enzyme”.

B4: human HIF prolyl hydroxylase 1 (HPH 1) with carboxy-terminal V5-HIS tag (protein)
chain: MPLGHIMRLDLEKIALEYIVPCLHEVGFCYLDNFLGEVVGDCVLERVKQLHCTGALRDGQLAGPRAGVSKRHLRGDQITWIGGNEEGCEAISFLLSLIDRLVLYCGSRLGKYYVKERSKAMVACYPGNGTGYVRHVDNPNGDGRCITCIYYLNKNWDAKLHGGILRIFPEGKSFIADVEPIFDRLLFFWSDRRNPHEVQPSYATRYAMTVWYFDAEERAEAKKKFRNLTRKTESALTED
As to B4, the “prolyl hydroxylase activity, [^35S]-pVHL pull-down assay” value in data set [1] was “Of the five candidate enzymes assayed, only one, HPH-1, was able to enhance pVHL association with the biotinylated peptide”. Further, the “prolyl hydroxylation of variant peptide substrates” value in data set [2] was “unable to modify peptides containing the L562A, A563G or Y565A mutations”; in data set [3], “unable to modify peptides containing the L562A, A563G or Y565A mutations”; in data set [4], “a peptide containing a mutation of Pro^567 to glycine served as an equal, if not better, substrate for the human HPH enzymes”; in data set [5], “unable to modify peptides containing the L562A, A563G or Y565A mutations”.

B5: human HPH 1 H135A with carboxy-terminal V5-HIS tag (protein)
chain: MPLGHIMRLDLEKIALEYIVPCLHEVGFCYLDNFLGEVVGDCVLERVKQLHCTGALRDGQLAGPRAGVSKRHLRGDQITWIGGNEEGCEAISFLLSLIDRLVLYCGSRLGKYYVKERSKAMVACYPGNGTGYVRAVDNPNGDGRCITCIYYLNKNWDAKLHGGILRIFPEGKSFIADVEPIFDRLLFFWSDRRNPHEVQPSYATRYAMTVWYFDAEERAEAKKKFRNLTRKTESALTED
Take B5: in data set [1], the prolyl hydroxylase activity result is “Each of these mutations eliminated the prolyl hydroxylase activity of the native HPH 1 enzyme”.

B6: human HPH 1 D137A with carboxy-terminal V5-HIS tag (protein)
chain: MPLGHIMRLDLEKIALEYIVPCLHEVGFCYLDNFLGEVVGDCVLERVKQLHCTGALRDGQLAGPRAGVSKRHLRGDQITWIGGNEEGCEAISFLLSLIDRLVLYCGSRLGKYYVKERSKAMVACYPGNGTGYVRHVANPNGDGRCITCIYYLNKNWDAKLHGGILRIFPEGKSFIADVEPIFDRLLFFWSDRRNPHEVQPSYATRYAMTVWYFDAEERAEAKKKFRNLTRKTESALTED
As for B6, in data set [1], the prolyl hydroxylase activity entry is on record as “Each of these mutations eliminated the prolyl hydroxylase activity of the native HPH 1 enzyme”.
